From patent US20230287051A1, “INHIBITORS OF COMPLEMENT FACTOR C3 AND THEIR MEDICAL USES” (ZP SPV 3 K/S, priority 2020, published 2023)
Numbered stars: 1 amine (or outer) side, 2 acyl side, 3 side chain; on linkers, the order of the positions; unused ones are H or OH. Bridge positions count the residues as written; N and C are the ends. Square brackets hold non-standard residues; d marks the D form. Side chains are listed from the residue outwards. Peptide text beside a SMILES is read from it. * marks the point of attachment. Trp(1-Me) = Cn1cc(C[C@H](N)C(=O)O)c2ccccc21; C18 diacid = O=C(O)CCCCCCCCCCCCCCCCC(=O)*; γGlu = O=C(O)[C@H](CCC(=O)[*:2])N[*:1]; AEEA = NCCOCCOCC(=O)O; CH2 = C([*:1])[*:2]; Sar = CNCC(=O)O

B1: Compound 19 (peptide)
peptide: EGSEFCIWQDWGEHRCTEGE
modifications: N-terminal [15-Carboxy-pentadecanoyl]; 1-Me-Trp at 8; Cys6 and Cys16 bridged by methylene thioacetal (-S-CH2-S-); Sar at 12; C-terminal amide
notes: Synthetic compstatin analogue; also called Comp No 19
B2: Compound 27 (peptide)
peptide: Ac-EGESGFCI[Trp(1-Me)]QDW[Sar]EHRCTEGE[AEEA][AEEA]K([γGlu-Gly-γGlu-C18 diacid])-NH2
modifications: bridge 7-17 via methylene thioacetal (-S-CH2-S-)
notes: Synthetic compstatin analogue; also called Comp No 27
B3: Compound 2 (peptide)
peptide: Ac-SEFCI[Trp(1-Me)]QDWGEHRC[Sar]EGE[AEEA][AEEA]K([γGlu-Gly-γGlu-C18 diacid])-NH2
modifications: bridge 4-14 via methylene thioacetal (-S-CH2-S-)
notes: Synthetic compstatin analogue; also called Comp No 2
B4: Compound 9 (peptide)
peptide: Ac-SEFCI[Trp(1-Me)]QDW[Sar]EHRCTEGE[AEEA][AEEA]K([γGlu-Gly-γGlu-C18 diacid])-NH2
modifications: bridge 4-14 via methylene thioacetal ‑S‑CH2‑S‑ (CH2I2, DIPEA)
notes: Synthetic compstatin analogue; also called Comp No 9
B5: Compound 12 (peptide)
peptide: Ac-EFCI[Trp(1-Me)]QDW[Sar]EHRCTEA[AEEA][AEEA]K([γGlu-Gly-γGlu-C18 diacid])-NH2
modifications: bridge 3-13 via methylene thioacetal (-S-CH2-S-)
notes: Synthetic compstatin analogue; also called Comp No 12
B6: Compound 29 (peptide)
peptide: H-ESGVFCI[Trp(1-Me)]QDW[Sar]EHRCTEGE[AEEA][AEEA]K([γGlu-Gly-γGlu-C18 diacid])-NH2
modifications: bridge 6-16 via methylene thioacetal (-S-CH2-S-)
notes: Synthetic compstatin analogue; also called Comp No 29
B7: Compound 7 (peptide)
peptide: Ac-SEFCI[Trp(1-Me)]QDW[Sar]EHRC[Sar]E[AEEA][AEEA]K([γGlu-Gly-γGlu-C18 diacid])-NH2
modifications: bridge 4-14 via methylene thioacetal (-S-CH2-S-)
notes: Synthetic compstatin analogue; also called Comp No 7
B8: Compound 10 (peptide)
peptide: Ac-SEFCI[Trp(1-Me)]QDW[Sar]EHRCTE[AEEA][AEEA]K([γGlu-Gly-γGlu-C18 diacid])-NH2
modifications: bridge 4-14 via methylene thioacetal (-S-CH2-S-)
notes: Synthetic compstatin analogue; also called Comp No 10
B9: Compound 15 (peptide)
peptide: Ac-[dY]ICI[Trp(1-Me)]QDW[Sar]EHRCTEGE[AEEA]ESK([γGlu-C18 diacid])-NH2
modifications: bridge 3-13 via methylene thioacetal (-S-CH2-S-)
notes: Synthetic compstatin analogue; also called Comp No 15
B10: Compound 28 (peptide)
peptide: Ac-GQSAFCI[Trp(1-Me)]QDW[Sar]EHRCTEGE[AEEA][AEEA]K([γGlu-Gly-γGlu-C18 diacid])-NH2
modifications: bridge 6-16 via methylene thioacetal (-S-CH2-S-)
notes: Synthetic compstatin analogue; also called Comp No 28
B11: Compound 1 (peptide)
peptide: SEFCIWQDWGEHRCTGAES
modifications: N-terminal acetyl; 1-Me-Trp at 6; Cys4 and Cys14 bridged by methylene thioacetal (-S-CH2-S-); C-terminal amide
notes: Synthetic compstatin analogue; also called Comp No 1
B12: Compound 20 (peptide)
peptide: Ac-EGSEFCI[Trp(1-Me)]QDW[Sar]EHRCTEGE[AEEA]ESK([γGlu-C18 diacid])-NH2
modifications: bridge 6-16 via methylene thioacetal (-S-CH2-S-)
notes: Synthetic compstatin analogue; also called Comp No 20

What follows are molecules tested against T1, Human C3 (Complement tech cat #A113c) (human, UniProt P01024 23-1663) (assay: cell-based or functional assay). Details: not given.
T1 sequence (P01024 23-1663 limits assumed): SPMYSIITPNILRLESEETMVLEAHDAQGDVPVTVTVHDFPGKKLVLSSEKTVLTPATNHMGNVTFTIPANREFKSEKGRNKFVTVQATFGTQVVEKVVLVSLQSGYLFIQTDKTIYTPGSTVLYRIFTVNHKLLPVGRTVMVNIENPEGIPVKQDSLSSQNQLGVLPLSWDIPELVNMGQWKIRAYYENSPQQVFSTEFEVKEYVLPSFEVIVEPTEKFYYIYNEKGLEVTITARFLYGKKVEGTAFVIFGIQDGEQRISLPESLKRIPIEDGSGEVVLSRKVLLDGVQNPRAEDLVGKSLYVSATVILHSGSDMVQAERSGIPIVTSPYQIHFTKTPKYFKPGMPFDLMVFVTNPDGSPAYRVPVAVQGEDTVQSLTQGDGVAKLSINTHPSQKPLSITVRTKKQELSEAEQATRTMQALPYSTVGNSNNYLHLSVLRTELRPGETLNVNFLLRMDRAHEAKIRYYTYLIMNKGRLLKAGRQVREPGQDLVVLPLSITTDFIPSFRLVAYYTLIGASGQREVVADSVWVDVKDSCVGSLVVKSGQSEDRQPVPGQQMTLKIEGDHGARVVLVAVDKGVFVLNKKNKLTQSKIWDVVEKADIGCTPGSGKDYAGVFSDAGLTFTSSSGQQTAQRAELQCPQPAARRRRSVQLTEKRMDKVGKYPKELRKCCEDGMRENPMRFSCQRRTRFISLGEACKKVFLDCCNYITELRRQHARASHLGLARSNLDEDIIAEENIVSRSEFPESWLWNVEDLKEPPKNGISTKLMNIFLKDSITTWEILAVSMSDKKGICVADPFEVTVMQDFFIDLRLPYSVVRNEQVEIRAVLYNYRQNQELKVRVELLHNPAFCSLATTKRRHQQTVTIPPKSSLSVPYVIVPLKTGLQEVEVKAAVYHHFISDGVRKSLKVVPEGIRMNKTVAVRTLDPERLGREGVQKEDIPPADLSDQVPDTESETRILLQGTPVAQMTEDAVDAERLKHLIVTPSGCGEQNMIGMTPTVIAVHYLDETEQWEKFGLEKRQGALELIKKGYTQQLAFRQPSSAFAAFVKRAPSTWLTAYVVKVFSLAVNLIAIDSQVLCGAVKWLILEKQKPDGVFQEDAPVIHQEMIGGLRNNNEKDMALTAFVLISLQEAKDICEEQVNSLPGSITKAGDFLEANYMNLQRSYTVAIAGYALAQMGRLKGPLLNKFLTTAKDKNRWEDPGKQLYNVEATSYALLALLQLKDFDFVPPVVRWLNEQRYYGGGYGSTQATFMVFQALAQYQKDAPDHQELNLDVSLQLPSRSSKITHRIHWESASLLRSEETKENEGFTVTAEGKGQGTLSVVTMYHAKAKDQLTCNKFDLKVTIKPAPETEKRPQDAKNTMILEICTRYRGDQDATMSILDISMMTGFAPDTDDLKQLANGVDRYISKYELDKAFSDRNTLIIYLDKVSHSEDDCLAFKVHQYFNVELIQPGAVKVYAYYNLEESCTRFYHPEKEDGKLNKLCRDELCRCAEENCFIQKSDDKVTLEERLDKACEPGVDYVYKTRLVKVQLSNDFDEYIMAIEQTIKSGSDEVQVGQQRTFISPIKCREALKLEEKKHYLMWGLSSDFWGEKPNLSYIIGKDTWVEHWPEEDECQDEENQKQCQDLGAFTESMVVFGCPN

Molecule	IC50 [nM], in vitro inhibition of hemolysis (classical complement pathway; human serum, sensitized sheep RBC)
B1	< 250 nM
B2	< 100 nM
B3	< 500 nM
B4	< 250 nM
B5	< 100 nM
B6	< 100 nM
B7	< 500 nM
B8	< 250 nM
B9	< 250 nM
B10	< 100 nM
B11	< 100 nM
B12	< 250 nM

What follows are molecules tested on classical complement pathway (assay: In vitro haemolysis assay (inhibition of classical complement pathway)). Details: human serum, sensitized sheep RBC, 30 minutes at 37° C., absorbance at 405 nm, n=>2; read-out: IC50, inhibition of hemolysis.
Format: cell-based
Description: The in vitro effect of some of the compounds described herein was assessed by measuring their inhibitory effect of the classical complement pathway in a haemolysis assay.
Briefly, compounds described herein and reference compounds were dissolved in DMSO and diluted in Tris/Casein Assay Buffer (10 mM Tris, 145 mM NaCl, 0.5 mM MgCl2, 0.15 mM CaCl2, and 0.1% W/V casein, adjusted to pH 7.4) as 9-point serial dilutions in a 96-well plate. Sensitized sheep red blood cells (RBC) coated with rabbit anti-sheep erythrocyte antiserum (Complement Technology, Inc., TX, USA) were washed in Tris/asein Assay Buffer. 50 μL from each well of diluted compound was added to a 96-well plate containing 50 μL diluted human serum (Complement Technology, Inc., TX, USA) and incubated for 15 minutes at room temperature. The serum dilution factor was optimized for every serum batch to obtain 70-90% of maximal haemolysis using the protocol. Then 50 μL sensitized sheep RBCs were added to all wells ([…]).
After 30 minutes of incubation at 37° C. with gentle agitation, the reaction was stopped by addition of 50 μL Tris STOP Buffer per well (10 mM EDTA, 10 mM Tris, 145 mM NaCl adjusted to pH 7.4). The RBCs were then removed by centrifugation and the resulting supernatant measured for hemolysis by absorbance at 405 nm.
The response was normalized relative to a positive and negative control (vehicle) to calculate the IC50 (nM) from the concentration response curve using the 4-parameter logistic (4PL) nonlinear model for curve fitting (Table 2). All values are based on n=>2 independent determinations.

Molecule	IC50
Ac-EQEVF[C(1)]I[1-Me-Trp]QDW[Sar]EHR[C(1)]TEGE[Peg3][Peg3]-K([17-Carboxy-heptadecanoyl][yGlu]G[yGlu])-NH2 [Compound 22]	< 100 nM
CC[C@H](C)[C@H](NC(=O)[C@H](N)Cc1ccc(O)cc1)C(=O)N[C@H]1CSSC[C@@H](C(=O)N(C)[C@H](C(N)=O)[C@@H](C)CC)NC(=O)[C@H](CCCNC(=N)N)NC(=O)[C@H](Cc2c[nH]cn2)NC(=O)[C@H](C)NC(=O)CN(C)C(=O)[C@H](Cc2c[nH]c3ccccc23)NC(=O)[C@H](CC(=O)O)NC(=O)[C@H](CCC(N)=O)NC(=O)[C@H](Cc2cn(C)c3ccccc23)NC(=O)[C@H](C(C)C)NC1=O [Cp40, H-{d}YIC(*)V[1-Me-Trp]QDW[SarJAHRC(*)[N-Me-Ile]-NH2, reference compound]	< 100 nM
Ac-SEF[C(1)]I[1-Me-Trp]QDW[SarJAHR[C(1)]TEGE[Peg3]ES-K([17-Carboxy-heptadecanoyl][yGlu])-NH2 [Compound 13]	< 250 nM
Ac-GEF[C(1)]I[1-Me-Trp]QDWGEHR[C(1)][Sar]EAE[Peg3][Peg3]-K([17-Carboxy-heptadecanoyl][yGlu]G[yGlu])-NH2 [Compound 6]	< 500 nM
CC[C@H](C)[C@@H]1NC(=O)[C@@H](NC(=O)[C@H](Cc2ccccc2)NC(=O)[C@H](C)NC(=O)[C@H](CCC(N)=O)NC(=O)[C@H](CCC(=O)O)NC(=O)[C@H](CO)NC(C)=O)CSCSC[C@@H](C(=O)N[C@H](C(=O)N[C@@H](CCC(=O)O)C(=O)NCC(=O)N[C@@H](CCC(=O)O)C(=O)NCCOCCOCC(=O)NCCOCCOCC(=O)N[C@@H](CCCCNC(=O)CC[C@H](NC(=O)CNC(=O)CC[C@H](NC(=O)CCCCCCCCCCCCCCCCC(=O)O)C(=O)O)C(=O)O)C(N)=O)[C@@H](C)O)NC(=O)[C@H](CCCNC(=N)N)NC(=O)[C@H](Cc2c[nH]cn2)NC(=O)[C@H](CCC(=O)O)NC(=O)CN(C)C(=O)[C@H](Cc2c[nH]c3ccccc23)NC(=O)[C@H](CC(=O)O)NC(=O)[C@H](CCC(N)=O)NC(=O)[C@H](Cc2cn(C)c3ccccc23)NC1=O [Compound 25, Ac-SEQAF[C(1)]I[1-Me-Trp]QDW[Sar]EHR[C(1)]TEGE[Peg3][Peg3]-K([17-Carboxy-heptadecanoyl][yGlu]G[yGlu])-NH2] (Ac-SEQAFCI[Trp(1-Me)]QDW[Sar]EHRCTEGE[AEEA][AEEA]K([γGlu-Gly-γGlu-C18 diacid])-NH2; linker 6-16 via CH2)	< 100 nM
Ac-SEF[C(1)]I[[1-Me-Trp]QDW[Sar]EHR[C(1)]TEGE[Peg3]ES-K([17-Carboxy-heptadecanoyl][yGlu])-NH2 [Compound 11]	< 250 nM
Ac-YEQAF[C(1)]I[1-Me-Trp]QDW[Sar]EHR[C(1)]TEGE[Peg3]ES-K([17-Carboxy-heptadecanoyl][yGlu]G[yGlu])-NH2 [Compound 30]	< 100 nM
CC[C@H](C)[C@@H]1NC(=O)[C@@H](NC(=O)[C@H](Cc2ccccc2)NC(=O)[C@@H](NC(=O)[C@H](CCC(N)=O)NC(=O)[C@H](CO)NC(=O)[C@H](CCC(=O)O)NC(C)=O)C(C)C)CSCSC[C@@H](C(=O)N[C@H](C(=O)N[C@@H](CCC(=O)O)C(=O)NCC(=O)N[C@@H](CCC(=O)O)C(=O)NCCOCCOCC(=O)NCCOCCOCC(=O)N[C@@H](CCCCNC(=O)CC[C@H](NC(=O)CNC(=O)CC[C@H](NC(=O)CCCCCCCCCCCCCCCCC(=O)O)C(=O)O)C(=O)O)C(N)=O)[C@@H](C)O)NC(=O)[C@H](CCCNC(=N)N)NC(=O)[C@H](Cc2c[nH]cn2)NC(=O)[C@H](CCC(=O)O)NC(=O)CN(C)C(=O)[C@H](Cc2c[nH]c3ccccc23)NC(=O)[C@H](CC(=O)O)NC(=O)[C@H](CCC(N)=O)NC(=O)[C@H](Cc2cn(C)c3ccccc23)NC1=O [Compound 23, Ac-ESQVF[C(1)]I[1-Me-Trp]QDW[Sar]EHR[C(1)]TEGE[Peg3][Peg3]-K([17-Carboxy-heptadecanoyI][yGlu]G[yGlu])-NH2] (Ac-ESQVFCI[Trp(1-Me)]QDW[Sar]EHRCTEGE[AEEA][AEEA]K([γGlu-Gly-γGlu-C18 diacid])-NH2; linker 6-16 via CH2)	< 100 nM

These molecules were tested against T1, Human C3 (Complement tech cat #A113c) (assay: SPR (Biacore X100, 25 C), human C3 amine-coupled on CM5 chip, peptide as analyte, 1:1 Langmuir fit). Details: not given.
Description: Surface plasmon resonance (SPR) was used to characterize peptides with respect to their binding affinity (Kd) for C3.
For interaction experiments, a multi-cycle experiment approach was used and performed using a BiacoreX100™ instrument (GE Healthcare) at 25° C. Peptides were injected in increasing concentration series (5 different concentrations and buffer reference) for 180 seconds at a flow rate of 30 μL/min in a buffer consisting of 50 mM Tris buffer at pH 7.4, with 150 mM NaCl and 0.05% Tween20. This was followed by a dissociation period for 10 min.
Sensorgrams were double-referenced (reference surface, blanks) prior to analysis of the kinetic profiles by globally fitting data to a 1:1 Langmuir binding model to obtain association and dissociation rates for calculation of the equilibrium dissociation constant Kd (Table 3). Each peptide was tested at in at least 2 independent experiments.

Kd	Molecule
54 nM	B3
12 nM	B5
21 nM	B7
16 nM	B9
25 nM	B11
